Among the data in PMC11051896 are Kd and binding values, retold here.

This data set has as its system T1, CcpA (Lactococcus lactis N8), ORF:ea67f8fe.
T1 sequence: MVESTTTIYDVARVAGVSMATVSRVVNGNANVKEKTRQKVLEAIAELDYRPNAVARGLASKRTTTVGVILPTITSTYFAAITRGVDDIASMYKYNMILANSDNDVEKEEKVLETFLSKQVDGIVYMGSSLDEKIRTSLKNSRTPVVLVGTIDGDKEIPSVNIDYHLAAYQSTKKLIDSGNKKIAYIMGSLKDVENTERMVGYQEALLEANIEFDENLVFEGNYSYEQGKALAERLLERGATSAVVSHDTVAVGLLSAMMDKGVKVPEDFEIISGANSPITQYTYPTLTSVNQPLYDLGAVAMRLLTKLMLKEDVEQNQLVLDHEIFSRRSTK
The experiment in a line: MST. Conditions: MST: Cy5-DNA 375 nM stock (10 uL per tube), CcpA from 15 uM in 16 two-fold dilutions; assay buffer, salt, pH and temperature not stated (protein purified in …).

Regarding “AGCCAGTGGCGATAAGTACGATAAAATATTTAAAAGTCTATATATACCAAGGAAGAAAACGCTTTAAATTTTTGTAAATTATTAGAAATAATGATAG (double strand) [N8-1-cre]”, the dissociation constant Kd is 44 nM. As to “AGCCAGTGGCGATAAGTACGATAAAATATTTAAAAGTCTATATATACCAAGGAAGAAAACTCTTTAAATTTTTGTAAATTATTAGAAATAATGATAG (double strand) [N8-2-cre]”, the binding entry is “no binding”.

The term Kd denotes a measure of binding affinity in units of concentration.
